The target of one series is MuLV RT (Moloney murine leukemia virus, UniProt P03355 660-1330). The series is described as follows: primer extension with trap; 6 mM Mg2+; Primer extension: 50 mM Tris-HCl pH 8.0, 80 mM KCl, 6 mM MgCl2, 1 mM DTT, 0.1 mg/ml BSA, room temperature, 1 nM duplex; filter binding: Tris-HCl pH 8.0, 80 mM K.
A further series has as its target T1, AMV RT (avian myeloblastosis virus, UniProt Q83133;Q83133 6-577;6-864).
T1 sequence 1: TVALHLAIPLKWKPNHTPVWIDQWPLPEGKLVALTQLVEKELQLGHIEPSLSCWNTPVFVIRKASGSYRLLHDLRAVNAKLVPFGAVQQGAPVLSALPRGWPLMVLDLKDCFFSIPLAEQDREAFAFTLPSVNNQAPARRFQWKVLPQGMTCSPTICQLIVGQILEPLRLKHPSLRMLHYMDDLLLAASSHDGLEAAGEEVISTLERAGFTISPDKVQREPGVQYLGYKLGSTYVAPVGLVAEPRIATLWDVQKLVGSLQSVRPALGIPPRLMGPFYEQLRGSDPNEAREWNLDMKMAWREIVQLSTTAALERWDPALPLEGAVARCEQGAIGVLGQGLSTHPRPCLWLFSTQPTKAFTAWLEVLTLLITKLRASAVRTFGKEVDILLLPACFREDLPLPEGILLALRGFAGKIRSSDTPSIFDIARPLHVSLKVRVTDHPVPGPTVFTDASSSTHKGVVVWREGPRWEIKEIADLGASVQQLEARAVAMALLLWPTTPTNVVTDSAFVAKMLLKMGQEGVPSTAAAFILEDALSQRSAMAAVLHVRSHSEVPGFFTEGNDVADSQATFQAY
T1 sequence 2: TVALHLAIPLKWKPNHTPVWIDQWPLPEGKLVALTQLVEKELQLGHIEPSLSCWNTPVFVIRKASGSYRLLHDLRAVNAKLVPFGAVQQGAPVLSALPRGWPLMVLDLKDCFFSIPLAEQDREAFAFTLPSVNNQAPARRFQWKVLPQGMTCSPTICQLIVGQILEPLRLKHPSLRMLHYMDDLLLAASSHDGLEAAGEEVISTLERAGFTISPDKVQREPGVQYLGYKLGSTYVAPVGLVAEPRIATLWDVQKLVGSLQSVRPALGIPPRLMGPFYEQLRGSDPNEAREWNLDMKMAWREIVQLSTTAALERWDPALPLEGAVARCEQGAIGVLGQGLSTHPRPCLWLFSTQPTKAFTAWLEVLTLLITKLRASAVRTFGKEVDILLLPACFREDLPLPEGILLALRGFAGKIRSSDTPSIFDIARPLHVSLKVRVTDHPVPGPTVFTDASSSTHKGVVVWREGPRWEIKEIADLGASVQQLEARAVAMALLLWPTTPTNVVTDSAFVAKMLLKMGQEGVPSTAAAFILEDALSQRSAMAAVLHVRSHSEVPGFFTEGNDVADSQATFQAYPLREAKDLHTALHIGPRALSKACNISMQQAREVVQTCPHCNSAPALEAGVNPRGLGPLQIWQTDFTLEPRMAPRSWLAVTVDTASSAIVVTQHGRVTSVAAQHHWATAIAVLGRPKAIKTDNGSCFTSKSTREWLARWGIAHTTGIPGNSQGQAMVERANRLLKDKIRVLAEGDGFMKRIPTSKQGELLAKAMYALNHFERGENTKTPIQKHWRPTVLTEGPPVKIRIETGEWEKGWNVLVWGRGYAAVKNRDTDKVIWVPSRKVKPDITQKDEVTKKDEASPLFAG
The experiment in a line: primer extension with trap; 6 mM Mg2+; Primer extension: 50 mM Tris-HCl pH 8.0, 80 mM KCl, 6 mM MgCl2, 1 mM DTT, 0.1 mg/ml BSA, room temperature, 1 nM duplex; filter binding: Tris-HCl pH 8.0, 80 mM KCl, 1 mM DTT, without Mg2+ (wt) or 6 mM Mg2+ (E478Q), room temperature, 5 nM hybrid (Table 1 units nM inferred). To be noted: protein: commercial; copies: 1;1; label: 5'-32P primer; 41 nt primer on 45 nt template, 5' overhang 4 nt (template).

Series [1] addresses T2, HIV RT (HIV, UniProt P04585;P04585 588-1147;588-1027). Described as above. To be noted: protein: commercial; copies: 1;1; label: 5'-32P primer; 41 nt primer on 45 nt template, 5' overhang 4 nt (template).
A further series concerns the target T3, Ty3 RT (Ty3 retrotransposon, UniProt Q99315 536-1011).
T3 sequence: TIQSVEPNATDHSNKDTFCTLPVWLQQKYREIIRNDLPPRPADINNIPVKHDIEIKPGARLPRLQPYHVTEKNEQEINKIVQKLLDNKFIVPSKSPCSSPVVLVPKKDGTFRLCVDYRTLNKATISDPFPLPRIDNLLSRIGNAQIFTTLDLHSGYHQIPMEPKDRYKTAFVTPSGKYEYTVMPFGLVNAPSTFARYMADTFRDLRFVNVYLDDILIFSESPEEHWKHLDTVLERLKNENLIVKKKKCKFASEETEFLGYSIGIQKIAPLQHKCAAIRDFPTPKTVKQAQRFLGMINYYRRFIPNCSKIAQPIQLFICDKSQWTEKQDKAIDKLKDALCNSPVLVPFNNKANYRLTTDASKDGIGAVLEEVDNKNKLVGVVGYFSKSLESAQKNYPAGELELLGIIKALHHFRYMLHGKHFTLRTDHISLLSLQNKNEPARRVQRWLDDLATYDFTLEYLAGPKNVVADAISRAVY
Described as above. To be noted: protein: recombinant; label: 5'-32P primer; 41 nt primer on 45 nt template, 5' overhang 4 nt (template).

Series [2] addresses T2, HIV RT. The series is described as follows: filter binding; no Mg2+; Primer extension: 50 mM Tris-HCl pH 8.0, 80 mM KCl, 6 mM MgCl2, 1 mM DTT, 0.1 mg/ml BSA, room temperature, 1 nM duplex; filter binding: Tris-HCl pH 8.0, 80 mM KCl, 1 mM DTT, without Mg2+ (wt) or 6 mM Mg2+ (E478Q), room temperature, 5 nM hybrid (Table 1 units nM inferred). To be noted: protein: commercial, copies: 1;1, label: 5'-32P primer.

As usually defined, the Kd is the equilibrium constant for the complex coming apart.

B1: MuLV R14-3 (dsDNA)
DNA 1: GCCTGCAGGTCGACTCTAGAGAGATGTAGCGCATGAAGGTA
DNA 2: CTTCTACCTTCATGCGCTACATCTCTCTAGAGTCGACCTGCAGGC
B1 showed a dissociation constant Kd with MuLV RT of 53 nM.

B2: AMV R12-3 (dsDNA)
DNA 1: GCCTGCAGGTCGACTCTAGACGGGCAGTGTAATGAAGGCCA
DNA 2: CTTCTGGCCTTCATTACACTGCCCGTCTAGAGTCGACCTGCAGGC
In the series with AMV RT, B2 gave a dissociation constant Kd of 6.8 ± 0.1 nM.

B3: AMV DNA PPT (dsDNA)
DNA 1: GCCTGCAGGTCGACTCTAGAGCTTTTGCATAGGGAGGGGGA
DNA 2: CATTTCCCCCTCCCTATGCAAAAGCTCTAGAGTCGACCTGCAGGC
B3: the equilibrium dissociation constant (Kd) with MuLV RT is 17 nM; with HIV RT [1], 8.2 ± 2 nM; with Ty3 RT it was 58 ± 4 nM; with AMV RT, 1 ± 0.1 nM.

B4: MuLV R14-1 (dsDNA)
DNA 1: GCCTGCAGGTCGACTCTAGAATAAGGAAGATCTGCGGGGGG
DNA 2: CTTTCCCCCCGCAGATCTTCCTTATTCTAGAGTCGACCTGCAGGC
In the series with MuLV RT, B4 showed a Kd of 8.1 nM.

B5: MuLV R14-2 (dsDNA)
DNA 1: GCCTGCAGGTCGACTCTAGACACCAGGACATGATGGCAGGA
DNA 2: ATCTTCCTGCCATCATGTCCTGGTGTCTAGAGTCGACCTGCAGGC
In the case of B5, in the series with MuLV RT, the Kd amounted to 77 nM.

B6: Ty3+3 RNA PPT (DNA:RNA)
RNA: CCUGAGCGCGCGGCC
DNA: CAGCGGCCGCGCGCTCAGG
modifications: strand 1 RNA, strand 2 DNA
Regarding B6, the affinity with HIV RT [2] (5' overhang 4 nt (template), printed U opposite A), expressed as Kd, was 900 ± 205 nM.

B7: MuLV DNA PPT (dsDNA)
DNA 1: GCCTGCAGGTCGACTCTAGATAGTCTCCAGAAAAAGGGGGG
DNA 2: CATTCCCCCCTTTTTCTGGAGACTATCTAGAGTCGACCTGCAGGC
With B7, the dissociation constant Kd with MuLV RT stood at 12 nM; with HIV RT [1], 3.5 ± 0.5 nM; with Ty3 RT, 45 ± 4 nM; with AMV RT, 2.6 ± 0.2 nM.

B8: HIV DNA PPT (41/45) (dsDNA)
DNA 1: GCCTGCAGGTCGACTCTAGACTTTTTAAAAGAAAAGGGGGG
DNA 2: CAGTCCCCCCTTTTCTTTTAAAAAGTCTAGAGTCGACCTGCAGGC
With B8, the Kd in the series with MuLV RT is 7.5 nM; with HIV RT [1], 3.2 ± 0.2 nM; in the series with Ty3 RT, 53 ± 12 nM; with AMV RT, 2.1 ± 0.4 nM.

B9: Control-2 (DNA:RNA)
RNA: AAUUCGAGCUCGGUA
DNA: CAGTTACCGAGCTCGAATT
modifications: strand 1 RNA, strand 2 DNA
On to B9, for which the Kd with HIV RT [2] (5' overhang 4 nt (template)) turned out to be 2610 ± 710 nM.

B10: AMV R12-2 (dsDNA)
DNA 1: GCCTGCAGGTCGACTCTAGATCACAAAGACCGGCGGGGTAA
DNA 2: ATCTTTACCCCGCCGGTCTTTGTGATCTAGAGTCGACCTGCAGGC
In the series with AMV RT, B10 gave an equilibrium dissociation constant (Kd) of 3.5 ± 0.1 nM.

B11: Ty3 RNA PPT (DNA:RNA)
?: GAGCGCGCGGCC
DNA: CAGCGGCCGCGCGCTCAGG
modifications: strand 1 RNA, strand 2 DNA
On to B11, for which, in the series with HIV RT [2] (template 5' overhang 4 nt, 3' overhang 3 nt), the Kd stood at 2380 ± 840 nM.

B12: Control-1 (DNA:RNA)
?: AAAAGAAAAGCGCGC
DNA: CAGTGCGCGCTTTTCTTTT
modifications: strand 1 RNA, strand 2 DNA
In turn, B12 displayed a dissociation constant Kd with HIV RT [2] (5' overhang 4 nt (template)) of 1760 ± 290 nM.

B13: TY3 DNA PPT (dsDNA)
DNA 1: GCCTGCAGGTCGACTCTAGAGACAACCCTGAGAGAGAGGAA
DNA 2: CATCTTCCTCTCTCTCAGGGTTGTCTCTAGAGTCGACCTGCAGGC
For the molecule B13, the Kd is 46 nM in the series with MuLV RT, 57 ± 10 nM in the series with HIV RT [1], 84 ± 26 nM with Ty3 RT and 12 ± 2 nM with AMV RT.

Values taken from publication PMC3407194, “Viral Reverse Transcriptases Show Selective High Affinity Binding to DNA-DNA Primer-Templates that Resemble the Polypurine Tract”.
